For assay [1], the target named is hemagglutinin (HA) of H1N1 influenza A strain A/Denver/57/1957, mature HA1/HA2 (Influenza A virus H1N1, strain A/Denver/57/1957). Put plainly: crystal structure.
The target in assay [2] is hemagglutinin (HA) of H1N1 influenza A strain A/Fort Monmouth/1/1947, mature HA1/HA2 trimer (Influenza A virus H1N1, strain A/Fort Monmouth/1/1947). Put plainly: crystal structure.
For assay [3], the target named is hemagglutinin (HA) of H1N1 influenza A strain A/Hickox/JY2/1940, mature HA1/HA2 trimer (Influenza A virus H1N1, strain A/Hickox/JY2/1940) (UniProt Q0HD60). The assay can be described thus: crystal structure.
For assay [4], the target named is hemagglutinin (HA) of H1N1 influenza A strain A/Melbourne/1/1946, mature HA1/HA2 trimer (Influenza A virus H1N1, strain A/Melbourne/1/1946). The assay can be described thus: crystal structure.
Assay [5] deals with hemagglutinin (HA) of H1N1 influenza A strain A/Netherlands/002P1/1951, mature HA1/HA2 trimer (Influenza A virus H1N1, strain A/Netherlands/002P1/1951). Put plainly: crystal structure.
Assay [6] addresses hemagglutinin (HA) of H1N1 influenza A strain A/Iowa/1943 (Influenza A virus H1N1, A/Iowa/1943 …, UniProt A4GCK8, strain). The assay can be described thus: SEC. The note with it: both partners purified.

As a reminder, the stoichiometry N is a count of units in the complex or per binding partner.

Consider “hemagglutinin (HA) of H1N1 influenza A strain A/Denver/57/1957, mature HA1/HA2 (natural protein)”, for which the stoichiometry N in assay [1] turned out to be 3. For “hemagglutinin (HA) of H1N1 influenza A strain A/Fort Monmouth/1/1947, mature HA1/HA2 trimer (natural protein)”, in assay [2], the stoichiometry N amounted to 3.

“hemagglutinin (HA) of H1N1 influenza A strain A/Hickox/JY2/1940, mature HA1/HA2 trimer (from UniProt Q0HD60) (natural protein)” came in with a stoichiometry N in assay [3] of 3.

In turn, “hemagglutinin (HA) of H1N1 influenza A strain A/Melbourne/1/1946, mature HA1/HA2 trimer (natural protein)” had a stoichiometry N in assay [4] of 3. “hemagglutinin (HA) of H1N1 influenza A strain A/Netherlands/002P1/1951, mature HA1/HA2 trimer (natural protein)”: the stoichiometry N in assay [5] stood at 3.

B1: anti-influenza head-binding antibody C05 fragment antigen binding (Fab) (Fab, V domains shown)
VH: EVQLQESGGGLVQPGESLRLSCVGSGSSFGESTLSYYAVSWVRQAPGKGLEWLSIINAGGGDIDYADSVEGRFTISRDNSKETLYLQMTNLRVEDTGVYYCAKHMSMQQVVSAGWERADLVGDAFDVWGQGTMVTVSS
VL: DIQLTQSPSSLSASVGDRVTLTCQASQDIRKFLNWYQQKPGKGPKLLIYDASNLQRGVPSRFSGGGSGTDFTLIISSLQPEDVGTYYCQQYDGLPFTFGGGTKVVIK
notes: also called C05 Fab; C05 antibody; not shown: His6, C-terminal, kept
Consider B1, for which the binding result in assay [6] is given as “binds”.
